T1: IL-1α (human, UniProt P01583 1-271, limits assumed)
T1 sequence (looked up): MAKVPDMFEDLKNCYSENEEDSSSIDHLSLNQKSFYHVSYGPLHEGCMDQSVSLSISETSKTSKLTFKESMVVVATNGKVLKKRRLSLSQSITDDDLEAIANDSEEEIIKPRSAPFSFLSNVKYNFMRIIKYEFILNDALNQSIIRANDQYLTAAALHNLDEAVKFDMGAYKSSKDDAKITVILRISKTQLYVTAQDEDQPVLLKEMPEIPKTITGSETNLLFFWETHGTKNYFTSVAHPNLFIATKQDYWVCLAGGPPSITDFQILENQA

T2: IL-18 (human, UniProt Q14116 1-193, limits assumed)
T2 sequence (looked up): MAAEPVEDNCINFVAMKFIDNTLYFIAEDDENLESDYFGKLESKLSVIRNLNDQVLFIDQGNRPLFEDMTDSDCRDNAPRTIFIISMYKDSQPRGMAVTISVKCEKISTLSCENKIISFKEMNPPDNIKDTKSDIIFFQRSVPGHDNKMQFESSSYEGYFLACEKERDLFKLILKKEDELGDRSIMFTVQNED

T3: IL-36Ra (human, UniProt Q9UBH0 1-155, limits assumed)
T3 sequence (looked up): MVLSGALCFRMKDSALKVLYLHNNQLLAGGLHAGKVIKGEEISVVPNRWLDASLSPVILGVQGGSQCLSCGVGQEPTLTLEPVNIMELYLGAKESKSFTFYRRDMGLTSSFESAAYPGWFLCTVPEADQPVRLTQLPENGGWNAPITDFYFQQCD

T4: IL-36a (human, UniProt Q9UHA7 1-158, limits assumed)
T4 sequence (looked up): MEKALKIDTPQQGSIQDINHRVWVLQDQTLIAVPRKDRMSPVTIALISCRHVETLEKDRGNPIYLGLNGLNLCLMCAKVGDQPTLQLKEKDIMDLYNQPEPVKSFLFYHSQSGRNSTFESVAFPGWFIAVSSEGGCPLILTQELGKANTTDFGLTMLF

T5: IL-37 (human, UniProt Q9NZH6 1-218, limits assumed)
T5 sequence (looked up): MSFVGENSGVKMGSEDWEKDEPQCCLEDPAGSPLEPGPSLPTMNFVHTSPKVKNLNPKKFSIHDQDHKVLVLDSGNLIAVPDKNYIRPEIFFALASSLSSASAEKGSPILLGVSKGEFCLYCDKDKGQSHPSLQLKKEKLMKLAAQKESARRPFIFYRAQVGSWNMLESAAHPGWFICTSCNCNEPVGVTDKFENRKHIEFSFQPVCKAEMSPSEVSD

T6: IL-36b (human, UniProt Q9NZH7 1-164, limits assumed)
T6 sequence (looked up): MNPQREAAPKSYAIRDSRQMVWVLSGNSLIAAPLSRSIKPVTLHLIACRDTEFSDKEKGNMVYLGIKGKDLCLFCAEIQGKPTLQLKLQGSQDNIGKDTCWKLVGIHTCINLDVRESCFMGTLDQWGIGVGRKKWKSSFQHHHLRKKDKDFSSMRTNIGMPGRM

T7: IL-36g (human, UniProt Q9NZH8 1-169, limits assumed)
T7 sequence (looked up): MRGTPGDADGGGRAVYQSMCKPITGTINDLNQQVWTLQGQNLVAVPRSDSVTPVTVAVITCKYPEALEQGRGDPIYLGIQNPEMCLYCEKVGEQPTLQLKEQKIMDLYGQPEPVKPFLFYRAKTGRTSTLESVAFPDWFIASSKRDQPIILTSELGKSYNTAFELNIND

T8: IL-33 (human, UniProt O95760 1-270, limits assumed)
T8 sequence (looked up): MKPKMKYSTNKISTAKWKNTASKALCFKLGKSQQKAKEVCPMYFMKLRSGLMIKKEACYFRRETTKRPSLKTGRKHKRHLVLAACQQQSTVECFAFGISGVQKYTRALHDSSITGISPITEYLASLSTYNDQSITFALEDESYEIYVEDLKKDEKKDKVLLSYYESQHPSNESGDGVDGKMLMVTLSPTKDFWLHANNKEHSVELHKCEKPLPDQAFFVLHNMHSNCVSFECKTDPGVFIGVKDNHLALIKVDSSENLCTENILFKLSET

T9: human interleukin-38 (IL-38) (human, UniProt Q8WWZ1 1-152)
T9 construct: The Adipogen protein is called full length; also called IL1F10/IL38; IL1F10
T9 sequence (looked up): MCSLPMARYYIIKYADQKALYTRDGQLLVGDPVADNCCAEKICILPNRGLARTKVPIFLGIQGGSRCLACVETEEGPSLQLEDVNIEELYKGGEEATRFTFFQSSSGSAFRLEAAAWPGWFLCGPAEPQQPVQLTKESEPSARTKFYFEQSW


What was measured:
IL-1α [1] = molecular target: T1, IL-1α; assay: CDI HuProt native protein microarray
Protocol: (§1) To confirm specificity to IL-38, several lead candidate antibodies (CD1-M3, CD1-M8, NZB-M8) were analyzed in a High-Spec Cross-reactivity Assay using native HuProt arrays (CDI Laboratories). […] of antibody was incubated overnight in a cold room, washed, and probed with anti-human secondary antibodies. Fluorescence intensity (F635) as an indicator of binding was measured for each spot. CDI software quantified the specificity of the antibody to each spot based on a Z-score. Z-score is defined as [F635−(Average F635 on array)]/(Standard deviation of F635 on array). S-score is defined as the difference between the Z-score of a given protein and the Z-score of the next highest protein.

IL-1β [2] = molecular target: T10, IL-1β (human, UniProt P01584 1-269, limits assumed); assay: CDI HuProt native protein microarray
Protocol: as §1

IL-1Ra [3] = molecular target: T11, IL-1Ra (human, UniProt P18510 26-177, limits assumed); assay: CDI HuProt native protein microarray
Protocol: as §1

IL-18 [4] = molecular target: T2, IL-18; assay: CDI HuProt native protein microarray
Protocol: as §1

IL-36Ra [5] = molecular target: T3, IL-36Ra; assay: CDI HuProt native protein microarray
Protocol: as §1

IL-36a [6] = molecular target: T4, IL-36a; assay: CDI HuProt native protein microarray
Protocol: as §1

IL-37 [7] = molecular target: T5, IL-37; assay: CDI HuProt native protein microarray
Protocol: as §1

IL-36b [8] = molecular target: T6, IL-36b; assay: CDI HuProt native protein microarray
Protocol: as §1

IL-36g [9] = molecular target: T7, IL-36g; assay: CDI HuProt native protein microarray
Protocol: as §1

IL-33 [10] = molecular target: T8, IL-33; assay: CDI HuProt native protein microarray
Protocol: as §1

[11] = molecular target: T9, human interleukin-38 (IL-38); assay: CDI HuProt native protein microarray, IL-1 family members
Protocol: as §1

IL-1α [12] = molecular target: T1, IL-1α; assay: as above
Protocol: as §1

IL-1β [13] = molecular target: T10, IL-1β; assay: as above
Protocol: as §1

IL-1Ra [14] = molecular target: T11, IL-1Ra; assay: as above
Protocol: as §1

IL-18 [15] = molecular target: T2, IL-18; assay: as above
Protocol: as §1

IL-36Ra [16] = molecular target: T3, IL-36Ra; assay: as above
Protocol: as §1

IL-36a [17] = molecular target: T4, IL-36a; assay: as above
Protocol: as §1

IL-37 [18] = molecular target: T5, IL-37; assay: as above
Protocol: as §1

IL-36b [19] = molecular target: T6, IL-36b; assay: as above
Protocol: as §1

IL-36g [20] = molecular target: T7, IL-36g; assay: as above
Protocol: as §1

IL-33 [21] = molecular target: T8, IL-33; assay: as above
Protocol: as §1

[22] = molecular target: T9, human interleukin-38 (IL-38); assay: SPR, IMM20130 captured on anti-human Fc CM5 chip, IL-38 as analyte, 25 C, 1:1 model
Protocol: Binding of IMM20130 to IL-38 (NovusBio, catalog number NBP2-22645) was quantified by surface plasmon resonance (SPR). Briefly, IMM20130 was diluted in SPR running buffer (10 mM HEPES, pH7.4, 150 mM NaCl, 0.0005% Tween-20, 0.2% bovine serum albumin) to final concentrations of 150 nM and 25 nM and captured at four different surface densities on an anti-human Fc coated CM5 sensor chip. Surface densities ranged from 600 to 3200 RU. IL-38 (NovusBio, catalog number NBP2-22645) was diluted in SPR running buffer to a concentration of 600 nM and a 3-fold dilution series was run across the four different IMM20130 density surfaces. Data were collected at 25° C. Data from all four surfaces were fitted to a 1:1 interaction model yielding the rate constants depicted in Table 2.

T11 sequence (P18510 26-177 limits assumed): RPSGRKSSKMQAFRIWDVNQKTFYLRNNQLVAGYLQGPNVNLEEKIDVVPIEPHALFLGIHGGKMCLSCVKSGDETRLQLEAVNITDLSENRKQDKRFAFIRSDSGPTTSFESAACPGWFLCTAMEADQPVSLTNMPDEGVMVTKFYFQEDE

Binder | binding result (IL-1α [1]) | binding result (IL-1β [2]) | binding result (IL-1Ra [3]) | binding result (IL-18 [4]) | binding result (IL-36Ra [5]) | binding result (IL-36a [6]) | binding result (IL-37 [7]) | binding result (IL-36b [8]) | binding result (IL-36g [9]) | binding result (IL-33 [10]) | Z-score [11] | Z-score (IL-1α [12]) | Z-score (IL-1β [13]) | Z-score (IL-1Ra [14]) | Z-score (IL-18 [15]) | Z-score (IL-36Ra [16]) | Z-score (IL-36a [17]) | Z-score (IL-37 [18]) | Z-score (IL-36b [19]) | Z-score (IL-36g [20]) | also measured
NZB-M8 (antibody, V domains shown, Mouse monoclonal from an NZB/w mouse hybridoma) VH: EVQLQQSGPELVKPGASVKISCKASGYSFTGYYMHWVKQSPEKSLEWIGVINPNTGGITYNQKFKAKATLNVDKSSSTAYMQLKSLTSEDSAVYYCARSMGVWGQGTLVTVSA VL: DIVMTQAAPSVSVTPGESVSISCRSSKSLLHSNGNTYLYWFLQRPGQSPQLLIYRMSNLASGVPDRFSGSGSGTAFTLRISRVEAEDVGVYYCMQYLEYPFTFGSGTKLEIK | no binding | no binding | no binding | no binding | no binding | no binding | no binding | no binding | no binding | no binding | 34 | -0.147 | -0.143 | -0.166 | -0.132 | -0.034 | 0.033 | -0.113 | -0.087 | -0.143 | Z-score (IL-33 [21]): -0.17
IMM20130 (antibody, human IgG1, kappa, V domains shown, also called PR087-29B5 (parent hybridoma antibody)) VH: QVQLVQSGAEVKKPGASVKVSCKASGYSFINYGITWVRQVPGQGLEWMGWISAYNVKTKYAPKFQGRVNMNTDTSTRTAYMELRSLRSDDTAVYYCARDRDYDFWSGSAFDIWGQGTMVTVSS VL: EIVLTQSPGTLSLSPGERVTLSCRASQSISTNYLAWYQQKPGQAPSLLIYGASSRATGIPDRFSGSGSGTDFTLTISRLEPEDFAVYYCQQYGSSPPRTFGQGTKLEIKR |  |  |  |  |  |  |  |  |  |  |  |  |  |  |  |  |  |  |  |  | Kd [22]: 13.6 nM; kon [22]: 4980 M⁻¹ s⁻¹
CD1-M8 (antibody, V domains shown, Mouse monoclonal from a CD-1 mouse hybridoma) VH: EVQLQQSGPELVKPGASVKMSCKASGYTFTDYYIHWVKQSHGKGLEWIGYIFPNNGGNGYSQKFKGKATMTVDKSSSTAYMELRSLTSEDSAVYYCARGGYDAGFVYWGQGTLVTVSA VL: DIVMSQSPSSLAVSAGEKVTMSCKSSQSLFNSGARKNFLAWYQQKPGQSPKLLIYWASTRESGVPDRFTGSGSGTDFTLTISSVQAEDLAVYYCKQSYYLITFGAGTKLELK | no binding | no binding | no binding | no binding | no binding | no binding | no binding | no binding | no binding | no binding | 142 | -0.014 | -0.017 | 0.003 | -0.016 | -0.019 | 0.012 | -0.016 | -0.01 | -0.008 | Z-score (IL-33 [21]): -0.014

— patent US20240174741A1 (IMMUNOME, published 2024)
